In assay [1] the target is T1, recombinant cynomolgus monkey (Macaca fascicularis) TfR1 (cynomolgus monkey (Macaca fascicularis), UniProt Q5RDH6 87-760 (Pongo abelii entry), limits assumed).
T1 construct: Recombinant protein; also called cTfR1; cyTfR1
T1 chain: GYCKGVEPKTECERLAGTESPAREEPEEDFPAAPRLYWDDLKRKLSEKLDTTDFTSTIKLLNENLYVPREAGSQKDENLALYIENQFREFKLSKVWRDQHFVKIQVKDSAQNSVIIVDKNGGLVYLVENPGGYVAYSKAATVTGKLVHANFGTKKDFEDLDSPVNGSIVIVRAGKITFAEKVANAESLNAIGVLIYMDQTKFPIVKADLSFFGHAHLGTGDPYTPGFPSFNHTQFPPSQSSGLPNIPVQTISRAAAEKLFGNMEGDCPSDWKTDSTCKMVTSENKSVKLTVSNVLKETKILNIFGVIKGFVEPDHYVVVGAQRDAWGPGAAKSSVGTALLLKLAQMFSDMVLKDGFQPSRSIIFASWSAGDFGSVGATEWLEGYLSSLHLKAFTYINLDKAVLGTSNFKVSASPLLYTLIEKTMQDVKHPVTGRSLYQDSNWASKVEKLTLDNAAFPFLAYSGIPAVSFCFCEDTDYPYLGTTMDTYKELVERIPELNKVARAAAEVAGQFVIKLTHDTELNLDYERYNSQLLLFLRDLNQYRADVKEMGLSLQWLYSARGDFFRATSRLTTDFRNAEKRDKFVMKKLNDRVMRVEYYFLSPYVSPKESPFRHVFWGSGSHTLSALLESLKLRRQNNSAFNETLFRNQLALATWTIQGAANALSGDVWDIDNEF
Put plainly: ELISA, recombinant TfR1 coated, unconjugated Fab (row 'Fab binding affinity ELISA').

The target in assay [2] is T2, recombinant human TfR1 (transferrin receptor protein 1) (human, UniProt P02786 89-760).
T2 construct: Recombinant protein in SPR and ELISA; they were assigned to this molecule; also called hTfR1; huTfR1
Described as above.

Assay [3] deals with T1, recombinant cynomolgus monkey (Macaca …). Description: ELISA on cTfR1, unconjugated Fab, % normalized RFUs. (In general: In an ELISA, binding on a coated surface is turned into a signal by an enzyme label.)
Assay [4] shares this target. Description: Table 14, unconjugated Fab, d0; method not named (values equal ELISA row of Table 13).
Assay [5] addresses T2, recombinant human TfR1 (transferrin …). The assay is described as above.
Another assay has as its target T3, recombinant mouse TfR1 (mouse, UniProt Q62351 89-763).
T3 construct: Recombinant protein coated on ELISA plates
Description: ELISA on plate-coated recombinant mouse TfR1, fluorescent anti-(H+L) IgG secondary. As for the experimental part:
(§1) Serial dilutions of the Fab were added to plates precoated with recombinant human, cynomolgus monkey, mouse, or rat TfR1. After a short incubation, binding of the Fab was quantified by addition of a fluorescently tagged anti-(H+L) IgG secondary antibody and measurement of fluorescence intensity at 495 nm excitation and 520 nm emission.

Assay [6] has as its target T2, recombinant human TfR1 (transferrin …). Put plainly: Biacore, d25; TfR1 species not stated. On the technique in general: In SPR one partner is held on a chip, and binding of the other changes the refractive index at the surface.
Assay [7] has the same target. Description: ELISA on plate-coated recombinant hTfR1, fluorescent anti-(H+L) IgG-A488 detection, % normalized RFUs. As for the experimental part:
To measure binding of humanized anti-TfR antibodies to TfR1, ELISAs were conducted. High binding, black, flat bottom, 96 well plates (Corning #3925) were first coated with 100 μL/well of recombinant huTfR1 at 1 μg/mL in PBS and incubated at 4° C. overnight. Wells were emptied and residual liquid was removed. Blocking was conducted by adding 200 μL of 1% BSA (w/w) in PBS to each well. Blocking was allowed to proceed for 2 hours at room temperature on a shaker at 30) rpm. After blocking, liquid was removed and wells were washed three times with 300 μL of TBST. Anti-TfR1 antibodies were then added in 0.5% BSA/TBST in triplicate in an 8 point serial dilution (dilution range 5 μg/mL-5 ng/mL). A positive control and isotype controls were also included on the ELISA plate. The plate was incubated at room temperature on an orbital shaker for 60 minutes at 300 rpm, and the plate was washed three times with 300 μL of TBST. Anti-(H+L)IgG-A488 (1:500) (Invitrogen #A11013) was diluted in 0.5% BSA in TBST, and 100 μL was added to each well. The plate was then allowed to incubate at room temperature for 60 minutes at 300 rpm on orbital shaker. The liquid was removed and the plate was washed four times with 300 μL of TBST. […] Data was recorded and analyzed for $EC50$. […]

For assay [8] the target is unchanged. Description: ELISA on hTfR1, unconjugated Fab, % normalized RFUs.
Assay [9] shares this target. Put plainly: Biacore, d0; TfR1 species not stated.
Assay [10] shares this target. Put plainly: kinetic analysis (Biacore), Table 7; TfR1 species not stated.
A further assay has as its target T4, recombinant rat TfR1 (rat, UniProt Q99376 89-761, limits assumed).
T4 construct: Recombinant protein coated on ELISA plates
Description: ELISA on plate-coated recombinant rat TfR1, fluorescent anti-(H+L) IgG secondary. As for the experimental part:
as §1

A word on the EC50: it is the midpoint of the concentration-response curve. Usually Kd stands for the free concentration of one partner at which half of the binding sites on the other are occupied at equilibrium, for simple one-to-one binding. One may read the koff as a measure of how fast the partners let go of each other. A word on the kon: it is the second-order rate constant of association.

T4 sequence (Q99376 89-761 limits assumed): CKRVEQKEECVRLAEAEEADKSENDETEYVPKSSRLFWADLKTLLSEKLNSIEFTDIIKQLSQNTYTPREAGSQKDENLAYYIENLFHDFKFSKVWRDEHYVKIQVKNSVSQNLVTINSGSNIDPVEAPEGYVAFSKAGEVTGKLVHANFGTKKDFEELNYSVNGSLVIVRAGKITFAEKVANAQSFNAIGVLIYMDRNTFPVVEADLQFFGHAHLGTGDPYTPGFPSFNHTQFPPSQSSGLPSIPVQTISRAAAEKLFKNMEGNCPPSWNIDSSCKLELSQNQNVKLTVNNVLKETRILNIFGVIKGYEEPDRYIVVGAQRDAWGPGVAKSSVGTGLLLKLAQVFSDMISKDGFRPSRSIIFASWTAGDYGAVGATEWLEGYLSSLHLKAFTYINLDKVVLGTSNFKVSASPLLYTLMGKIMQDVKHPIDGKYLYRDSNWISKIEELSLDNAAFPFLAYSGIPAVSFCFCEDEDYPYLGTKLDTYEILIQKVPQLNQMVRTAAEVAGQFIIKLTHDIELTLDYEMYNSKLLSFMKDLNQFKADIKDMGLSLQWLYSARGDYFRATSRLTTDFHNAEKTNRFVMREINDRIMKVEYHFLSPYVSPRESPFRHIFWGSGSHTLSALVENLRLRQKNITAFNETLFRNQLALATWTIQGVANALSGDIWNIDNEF
T3 sequence (Q62351 89-763 limits assumed): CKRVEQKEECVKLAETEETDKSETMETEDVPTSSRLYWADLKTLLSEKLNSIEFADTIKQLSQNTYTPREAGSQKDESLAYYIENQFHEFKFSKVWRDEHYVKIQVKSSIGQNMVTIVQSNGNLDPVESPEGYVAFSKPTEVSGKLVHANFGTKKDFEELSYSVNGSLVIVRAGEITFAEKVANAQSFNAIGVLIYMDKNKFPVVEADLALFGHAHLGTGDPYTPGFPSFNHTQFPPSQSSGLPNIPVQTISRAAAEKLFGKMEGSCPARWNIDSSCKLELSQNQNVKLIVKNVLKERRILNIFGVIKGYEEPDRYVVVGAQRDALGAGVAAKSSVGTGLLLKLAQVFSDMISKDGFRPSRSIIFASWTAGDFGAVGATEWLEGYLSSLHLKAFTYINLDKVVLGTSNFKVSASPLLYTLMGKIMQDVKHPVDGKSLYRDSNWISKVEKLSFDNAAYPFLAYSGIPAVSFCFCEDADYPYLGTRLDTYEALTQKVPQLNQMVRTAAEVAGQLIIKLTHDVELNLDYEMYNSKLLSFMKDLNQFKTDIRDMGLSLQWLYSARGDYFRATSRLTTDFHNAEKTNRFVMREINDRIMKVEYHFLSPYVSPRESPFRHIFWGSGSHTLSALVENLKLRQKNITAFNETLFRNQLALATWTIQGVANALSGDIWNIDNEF

B1: humanized anti-TfR Fab 3M12 VH4/Vκ3 (Fab, V domains shown)
VH: QVQLQESGPGLVKPSQTLSLTCTVTGYSITSGYYWNWIRQPPGKGLEWIGYITFDGANNYNPSLKNRVSISRDTSKNQFSLKLSSVTAEDTATYYCTRSSYDYDVLDYWGQGTTVTVSS
VL: DIQMTQSPSSLSASVGDRVTITCRASQDISNFLNWYQQKPGQPVKLLIYYTSRLHSGVPSRFSGSGSGTDFTLTISSLQPEDFATYYCQQGHTLPYTFGQGTKLEIKR
notes: also called 3M12 (VH4/Vk3); anti-TfR Fab 3M12 VH4/Vk3
On to B1, for which the EC50 in [1] worked out at 2.2 nM; in [2] it was 0.5 nM; in assay [3] it was 9.9 nM; in assay [7], 2.1 nM; in [8] it was 2.1 nM. Besides, the Binding affinity in [4] came out at 2.2 nM; in [5], 0.5 nM. In addition, the binding result with recombinant mouse TfR1 and with recombinant rat TfR1 was “no binding (tested: 500 nM)” throughout. The values for the Kd in [6], in [9] and in assay [10] were 0.486 nM, 0.341 nM and 0.341 nM, respectively. Further, in assay [10], the koff is 8.61e-05 s⁻¹. Also, the kon in [10] amounted to 252000 M⁻¹ s⁻¹.

Values taken from patent publication US11844843 (DYNE THERAPEUTICS, dated 2023).
